Assay results: patent publication US10555963B2, “Klotho protein and related compounds for the treatment and diagnosis of cancer” (TEL HASHOMER MEDICAL RESEARCH INFRASTRUCTURE AND SERVICES …, priority 2007, dated 2020)

Experiments:
[1] = test system: IGF-1 pathway in MDA-MB-231 cells; assay: IGF-1 pathway activation (Western blotting) after klotho protein over-expression; format: cell-based, human; conditions: IGF-1 12.5 nM, 15 min, data not shown
Protocol: (§1) For breast cells, cells were harvested and lysed for total protein extraction in RIPA buffer (50 mM Tris-Cl pH 7.4, 150 mM NaCl, 1% NP-40, 0.25% Na-deoxycholate, 1 mM EDTA, 1 mM NaF) together with a protease inhibitor cocktail (Sigma). 50 μg protein extracts were loaded on 10% polyacrylamide gels, separated electrophoretically and blotted from the gel onto nitrocellulose membrane (Schleicher & Schuell Bioscience GmbH, Dassel, D E). The membranes were then immunoblotted with the indicated antibodies.
(§2) MDA-MB-231 cells, which express lower levels of these receptors, were also examined. HEK 293 cells, whose growth is not dependent on the IGF-1 pathway (El-Shewy et al., 2007) and is not inhibited by klotho protein, served as control.
(§3) In further experiments, MCF-7, MDA-MB-231 or HEK-293 cells were transfected with either pcDNA3-HA-KL or empty vector and treated with IGF-1 (12.5 nM, 15 min).

[2] = test system: IGF-1 pathway in HEK 293 cells; assay: as above; format: cell-based, human; conditions: IGF-1 12.5 nM, 15 min
Protocol: as §1, §2, §3

[3] = test system: EGF pathway in MCF-7, MDA-MB-231 and HEK293 cells; assay: EGF pathway (ERK1/2) after klotho protein over-expression; format: cell-based, human; conditions: starved 48 hours
Protocol: The effects of over-expression of klotho protein on the insulin-stimulated pathway were also examined. The EGF pathway, which plays an important role in the pathogenesis of breast cancer, is not modulated by klotho protein in either L6 or H411E cells (Kurosu et al., 2005). In order to evaluate the effects of klotho protein on this pathway in MCF-7, MDA-MB-231 and HEK293 breast cancer cells, these cells were transfected with either pcDNA3-HA-KL or an empty vector, starved for 48 hours, treated with EGF, and analyzed for the expression and activity of the ERK1/2, which are downstream targets of the EGF pathway.

C/EBPβ in MCF-7 cells = assay: C/EBPβ levels after klotho protein over-expression; format: cell-based, human; conditions: over-expression vs empty vector
Protocol: as §3
C/EBPβ is a down-stream target of the GSK3β pathway, which is suppressed following stimulation by IGF-1 (Li et al., 2007). […] The effects of over-expression of klotho protein on C/EBPβ levels were therefore analyzed.

IGF-1R = target: T1, IGF-1R (Homo sapiens, UniProt P08069); assay: Co-immunoprecipitation of HA-klotho protein and IGF-1R in MCF-7 cells; format: binding; conditions: MCF-7 cells expressing HA-klotho protein
T1 construct: endogenous in cells; host or cells: MCF-7 cells expressing HA-klotho (stably or transiently)
Protocol: Cells were harvested as for Western blot, and 400 μg protein lysate were incubated with IgG-Sepharose (Sigma) or protein A/G (Pierce, Rockford, Ill.) beads at 4° C. for 1 h to eliminate non-specifically bound proteins. These beads were subsequently used as a negative control. The supernatants were then incubated for 4 hours with either 2 μg anti-HA antibody (Sigma) or 2 μl of anti-IGF-1β-R (Santa Cruz Biotechnology) and IgG-Sepharose or protein A/G (Pierce, Rockford, Ill.), respectively, was added. Following an overnight incubation, the beads were washed 6 times in RIPA buffer and the immunoprecipitated materials were separated by SDS-PAGE and detected by Western blotting.
As klotho protein can bind FGFR and other membrane proteins, binding of klotho protein to the IGF-1R was examined. Co-immunoprecipitation assays were conducted using MCF-7 cells either stably (FIG. 10) or transiently (data not shown) expressing HA-klotho protein. HA-klotho protein was detected by Western blotting following immunoprecipitation of the IGF-1R, and the IGF-1R was detected following immunoprecipitation using HA-directed antibody.

MDA-MB-231 = assay: Colony formation assay after transfection with klotho protein expression vector; format: cell-based, human; conditions: transfected pcDNA3-HA-KL vs empty vector; G418 two weeks; p<0.0005
Protocol: (§4) Two days following transfection with the indicated plasmids, G418 (750 μg/ml) was added to the culture media; and at day 14, the cells were stained using gentian violet. Untransfected cells were treated similarly, and all died within the 2 weeks of culture in the selection media. Quantification of the results was performed using AlphaImager 2000 (Alpha Innotech, CA).
(§5) The effect of klotho protein on growth of breast cancer cells was first assessed using colony formation assays. MCF-7, MDA-MB-231 and the non-cancerous human embryonic kidney (HEK) 293 cells were transfected with either a HA-tagged klotho protein expression vector (pcDNA3-HI-A-KL) or an empty vector (pcDNA3). Transfected cells were cultured in media containing G418 for two weeks and stained to determine the number of surviving colonies.

MCF-7 = assay: as above; format: cell-based, human; conditions: transfected pcDNA3-HA-KL vs empty vector; G418 two weeks; p<0.0005
Protocol: as §4, §5

T1 sequence (P08069 31-1367): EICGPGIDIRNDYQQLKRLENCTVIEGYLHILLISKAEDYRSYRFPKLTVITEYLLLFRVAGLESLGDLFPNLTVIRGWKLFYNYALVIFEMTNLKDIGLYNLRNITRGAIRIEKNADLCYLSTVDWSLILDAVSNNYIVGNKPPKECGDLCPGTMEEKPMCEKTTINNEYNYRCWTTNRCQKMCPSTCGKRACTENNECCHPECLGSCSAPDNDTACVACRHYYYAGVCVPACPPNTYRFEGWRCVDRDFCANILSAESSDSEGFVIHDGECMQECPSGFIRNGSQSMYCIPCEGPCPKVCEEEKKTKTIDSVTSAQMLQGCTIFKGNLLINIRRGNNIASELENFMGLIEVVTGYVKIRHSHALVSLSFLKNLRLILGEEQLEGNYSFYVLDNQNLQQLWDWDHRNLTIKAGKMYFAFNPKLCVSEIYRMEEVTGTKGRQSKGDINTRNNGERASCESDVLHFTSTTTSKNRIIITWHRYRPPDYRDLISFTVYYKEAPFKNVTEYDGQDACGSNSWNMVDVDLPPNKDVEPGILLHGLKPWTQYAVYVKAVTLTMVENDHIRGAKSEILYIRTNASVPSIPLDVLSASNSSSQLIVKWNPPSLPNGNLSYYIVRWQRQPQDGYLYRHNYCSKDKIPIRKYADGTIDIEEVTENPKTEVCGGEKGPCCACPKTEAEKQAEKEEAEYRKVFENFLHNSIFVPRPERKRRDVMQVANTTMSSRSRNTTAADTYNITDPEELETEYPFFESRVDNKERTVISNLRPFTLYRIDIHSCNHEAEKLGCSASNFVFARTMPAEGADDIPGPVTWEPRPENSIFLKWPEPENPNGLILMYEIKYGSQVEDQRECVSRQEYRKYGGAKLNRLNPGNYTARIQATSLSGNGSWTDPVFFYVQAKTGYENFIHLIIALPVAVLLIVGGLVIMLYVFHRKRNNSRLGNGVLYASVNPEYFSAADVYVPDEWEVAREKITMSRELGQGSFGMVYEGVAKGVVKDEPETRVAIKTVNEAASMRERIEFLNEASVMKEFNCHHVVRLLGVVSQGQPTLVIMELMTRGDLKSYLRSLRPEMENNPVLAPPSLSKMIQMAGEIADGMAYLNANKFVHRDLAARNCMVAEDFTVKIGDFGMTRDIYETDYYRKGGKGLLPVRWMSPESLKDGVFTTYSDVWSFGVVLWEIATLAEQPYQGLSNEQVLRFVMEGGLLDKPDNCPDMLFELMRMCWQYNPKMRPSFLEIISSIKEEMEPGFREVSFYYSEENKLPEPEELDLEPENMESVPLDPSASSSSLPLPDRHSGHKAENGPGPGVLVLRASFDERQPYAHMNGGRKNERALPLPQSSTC

- interaction with the IGF-1 receptor (co-immunoprecipitation) (IGF-1R): interaction
B1: klotho protein: full length mouse Klotho (SEQ ID NO. 3) over-expressed in cells from HA-tagged expression vector pcDNA3-HA-KL (protein)
chain: MLARAPPRRPPRLVLLRLLLLHLLLLALRARCLSAEPGQGAQTWARFARAPAPEAAGLLHDTFPDGFLWAVGSAAYQTEGGWRQHGKGASIWDTFTHHSGAAPSDSPIVVAPSGAPSPPLSSTGDVASDSYNNVYRDTEGLRELGVTHYRFSISWARVLPNGTAGTPNREGLRYYRRLLERLRELGVQPVVTLYHWDLPQRLQDTYGGWANRALADHFRDYAELCFRHFGGQVKYWITIDNPYVVAWHGYATGRLAPGVRGSSRLGYLVAHNLLLAHAKVWHLYNTSFRPTQGGRVSIALSSHWINPRRMTDYNIRECQKSLDFVLGWFAKPIFIDGDYPESMKNNLSSLLPDFTESEKRLIRGTADFFALSFGPTLSFQLLDPNMKFRQLESPNLRQLLSWIDLEYNHPPIFIVENGWFVSGTTKRDDAKYMYYLKKFIMETLKAIRLDGVDVIGYTAWSLMDGFEWHRGYSIRRGLFYVDFLSQDKELLPKSSALFYQKLIEDNGFPPLPENQPLEGTFPCDFAWGVVDNYVQVDTTLSQFTDPNVYLWDVHHSKRLIKVDGVVAKKRKPYCVDFSAIRPQITLLREMRVTHFRFSLDWALILPLGNQTQVNHTVLHFYRCMISELVHANITPVVALWQPAAPHQGLPHALAKHGAWENPHTALAFADYANLCFKELGHWVNLWITMNEPNTRNMTYRAGHHLLRAHALAWHLYDDKFRAAQKGKISIALQADWIEPACPFSQNDKEVAERVLEFDIGWLAEPIFGSGDYPRVMRDWLNQKNNFLLPYFTEDEKKLVRGSFDFLAVSHYTTILVDWEKEDPMKYNDYLEVQEMTDITWLNSPSQVAVVPWGLRKVLNWLRFKYGDLPMYVTANGIDDDPHAEQDSLRIYYIKNYVNEALKAYVLDDINLCGYFAYSLSDRSAPKSGFYRYAANQFEPKPSMKHYRRIIDSNGFLGSGTLGRFCPEEYTVCTECGFFQTRKSLLVFISFLVFTFIISLALIFHYSKKGQRSYK
modifications: HA tag
- effect on IGF-1 pathway phosphorylation [1]: Smaller effects
- effect on IGF-1 pathway phosphorylation [2]: only minor effects
- expression and phosphorylation of ERK1/2 after EGF [3]: affected neither the expression nor phosphorylation
- C/EBPβ levels (C/EBPβ in MCF-7 cells): significant up-regulation
- reduction of number and size of surviving colonies (MDA-MB-231): 72%
- reduction of number and size of surviving colonies (MCF-7): 84%
